In patent US20090209457A1, “TREATMENT OF ANTI-ERYTHROPOIETIN ANTIBODY-MEDIATED DISORDERS WITH SYNTHETIC PEPTIDE-BASED EPO RECEPTOR AGONISTS” (Affymax, Inc., priority 2008, published 2009):
Read-outs that look alike come from different tables or passages of the source. One block for each molecule: values may come before it. Bridge positions count the residues as written; N and C are the ends. Square brackets hold non-standard residues; d marks the D form. Ends that are not written are not given here. 1Nal = N[C@@H](Cc1cccc2ccccc12)C(=O)O; Sar = CNCC(=O)O

Tests used:
[1] = system: human, bone marrow derived CD34+ cells; experiment: C/BFU-e assay (erythroid colonies); type: cell-based; conditions: 14 days, 90% of maximum colonies relative to EPO control
Method: EPO-R signaling stimulates the differentiation of bone marrow stem cells into proliferating red blood cell precursors. This assay measures the ability of test peptides to stimulate the proliferation and differentiation of red blood cell precursors from primary human bone marrow pluripotent stem cells.
For this assay, serial dilutions of test peptide are made in IMDM medium (Gibco) supplemented with 10% FBS (Hyclone). These serial dilutions, or positive control EPO peptide, are then added to methylcellulose to give a final volume of 1.5 mL. The methylcellulose and peptide mixture is then vortexed thoroughly. Aliquots (100,000 cells/mL) of human, bone marrow derived CD34+ cells (Poietics/Cambrex) are thawed. The thawed cells are gently added to 0.1 mL of 1 mg/ml DNAse (Stem Cells) in a 50 mL tube. Next, 40-50 mL IMDM medium is added gently to cells: the medium is added drop by drop along the side of the 50 mL tube for the first 10 mL, and then the remaining volume of medium is slowly dispensed along the side of the tube. The cells are then spun at 900 rpm for 20 min, and the media removed carefully by gentle aspiration. The cells are resuspended in 1 ml of IMDM medium and the cell density per mL is counted on hemacytometer slide (10 μL aliquot of cell suspension on slide, and cell density is the average count×10,000 cells/ml). The cells are then diluted in IMDM medium to a cell density of 15,000 cells/mL. A 100 μL of diluted cells is then added to each 1.5 mL methyl cellulose plus peptide sample (final cell concentration in assay media is 1000 cells/mL), and the mixture is vortexed. Allow the bubbles in the mixture to disappear, and then aspirate 1 mL using blunt-end needle. Add 0.25 mL aspirated mixture from each sample into each of 4 wells of a 24-well plate (Falcon brand). Incubate the plated mixtures at 37° C. under 5% CO2 in a humid incubator for 14 days. Score for the presence of erythroid colonies using a phase microscope (5×-10× objective, final magnification of 100×). The concentration of test peptide at which the number of formed colonies is 90% of maximum, relative to that observed with the EPO positive control, is recorded as the EC90 [See Table 2: C/BFU-e EC90].
For this assay, serial dilutions of test peptide are made in IMDM medium (Gibco) supplemented with 10% FBS (Hyclone). These serial dilutions, or positive control EPO peptide, are then added to methylcellulose to give a final volume of 1.5mL. The methylcellulose and peptide mixture is then vortexed thoroughly. […] The cells are resuspended in 1 ml of IMDM medium and the cell density per mL is counted on hemacytometer slide (10 μL aliquot of cell suspension on slide, and cell density is the average count×10,000 cells/ml). […]

[2] = target: T1, chimeric receptor comprising the extra-cellular portion of the human EPO receptor to the intra-cellular … (human, UniProt P19235 25-250; Q99062 651-836, limits assumed); experiment: cell-based or functional assay
T1 sequence (looked up): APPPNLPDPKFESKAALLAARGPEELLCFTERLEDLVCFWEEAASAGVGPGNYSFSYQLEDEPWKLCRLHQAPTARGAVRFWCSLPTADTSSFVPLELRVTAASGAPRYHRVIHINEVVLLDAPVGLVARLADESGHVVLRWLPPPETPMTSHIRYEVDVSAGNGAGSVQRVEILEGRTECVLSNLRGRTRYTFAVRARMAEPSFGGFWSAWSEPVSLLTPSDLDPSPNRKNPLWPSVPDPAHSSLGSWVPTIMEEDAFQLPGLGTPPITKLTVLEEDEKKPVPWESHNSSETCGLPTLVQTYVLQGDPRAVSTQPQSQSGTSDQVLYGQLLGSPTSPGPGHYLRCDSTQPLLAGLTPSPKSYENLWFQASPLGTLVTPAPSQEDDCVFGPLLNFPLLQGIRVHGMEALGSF

[3] = target: T2, human EPO-R on cells (BaF3/Gal4/Elk/EPOR cells; human bone marrow derived CD34+ cells) (human, UniProt P19235 25-508); experiment: cell-based or functional assay
T2 sequence (looked up): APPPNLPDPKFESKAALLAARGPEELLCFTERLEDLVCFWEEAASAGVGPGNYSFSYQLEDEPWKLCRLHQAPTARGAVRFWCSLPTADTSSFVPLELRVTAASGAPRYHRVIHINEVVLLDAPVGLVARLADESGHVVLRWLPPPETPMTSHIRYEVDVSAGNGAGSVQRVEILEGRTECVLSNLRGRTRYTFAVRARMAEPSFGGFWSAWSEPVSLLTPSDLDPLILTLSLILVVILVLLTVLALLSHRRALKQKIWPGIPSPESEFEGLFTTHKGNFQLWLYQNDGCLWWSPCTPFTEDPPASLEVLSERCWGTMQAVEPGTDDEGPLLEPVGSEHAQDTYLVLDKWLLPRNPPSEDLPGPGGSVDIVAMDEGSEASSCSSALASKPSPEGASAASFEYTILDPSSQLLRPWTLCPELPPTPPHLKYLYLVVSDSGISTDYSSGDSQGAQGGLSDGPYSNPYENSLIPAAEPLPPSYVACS

[4] = target: T3, recombinant EPO-R produced in Chinese Hamster Ovary cells as a fusion protein to a portion of the human … (human, UniProt P19235 25-250); experiment: competitive binding; the column head says only 'IC50 (pM)', the text ties Table 2 to the AQ bead proximity assay with tracer SEQ ID NO: 4 as competitor
T3 construct: In the assay it was held on protein A acceptor beads through antibody ab179
T3 sequence (looked up): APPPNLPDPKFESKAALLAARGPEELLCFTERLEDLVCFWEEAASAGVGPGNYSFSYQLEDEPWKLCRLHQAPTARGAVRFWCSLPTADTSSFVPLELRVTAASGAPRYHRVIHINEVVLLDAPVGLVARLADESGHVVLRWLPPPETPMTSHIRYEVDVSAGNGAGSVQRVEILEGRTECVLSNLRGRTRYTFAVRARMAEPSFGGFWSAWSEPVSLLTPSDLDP

[5] = target: T1, chimeric receptor comprising the …; experiment: cell-based or functional assay; remark: listed apart in the source
[6] = target: T2, human EPO-R on cells …; experiment: cell-based or functional assay; remark: listed apart in the source
[7] = target: T4, Recombinant Human EPO R/Fc Chimera (R&D Systems, catalog number 963-ER) (human, UniProt P19235 25-250); experiment: radioligand competition: displacement of 125I-EPO from recombinant human EPO R/Fc, Protein-G Sepharose pull-down
T4 construct: extracellular domain; Bought reagent; also called recombinant EPOr extracellular domain fused to the Fc portion of human IgG1; recombinant erythropoietin receptor; not shown: Fc portion of human IgG1
T4 sequence (looked up): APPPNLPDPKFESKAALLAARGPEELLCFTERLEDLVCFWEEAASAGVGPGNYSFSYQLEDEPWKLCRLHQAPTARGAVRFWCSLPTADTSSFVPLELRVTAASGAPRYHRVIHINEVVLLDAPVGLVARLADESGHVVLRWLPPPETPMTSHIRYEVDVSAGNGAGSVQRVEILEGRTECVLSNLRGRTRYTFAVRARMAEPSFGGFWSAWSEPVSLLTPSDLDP

Molecule: Peptide IV: PEGylated peptide dimer of (AcG)GLYACHMGPIT(1-nal)VCQPLRK (SEQ ID NO: 1), EPO-R agonist (Ac-GGLYACHMGPIT[1Nal]VCQPLRK; disulfide 6-15 (inferred); also: PEGylated peptide dimer)
EC90 [1]: 6.2 nM

B2: Peptide II (SEQ ID NO: 3) (peptide)
peptide: Ac-GGLYACHMGPIT[1Nal]VCQPLR[Sar]
modifications: disulfide 6-15 (inferred); also: C-termini joined to α- and ε-amines of a Lys linker carrying spacer and PEG
IC50 [4]: 0.11 nM

B3: Peptide I (SEQ ID NO: 2) (peptide)
peptide: Ac-GGLYACHMGPIT[1Nal]VCQPLR[Sar]K
modifications: disulfide 6-15 (inferred); also: K21 ε-amine joined to branched tertiary amide linker bearing PEG
Reporter EC50 (pM) [5]: 195 pM
Proliferation EC50 (pM) [6]: 165 pM
IC50 [7]: 0.111 nM

Other lines, results leading:

EC90 [1]: 2.2 nM
Molecule: PEGylated peptide dimer of (AcG)GLYACHMGPIT(1-nal)VCQPLR(MeG) (SEQ ID NO: 3), EPO-R agonist [Peptide II] (Ac-GGLYACHMGPIT[1Nal]VCQPLR[Sar]; disulfide 6-15 (inferred); also: homodimer, C-termini joined to a lysine linker, PEGylated)

EC90 [1]: 2.7 nM
Molecule: PEGylated peptide dimer of (AcG)GLYACHMGPIT(1-nal)VCQPLR(MeG) (SEQ ID NO: 3), EPO-R agonist [Peptide III] (Ac-GGLYACHMGPIT[1Nal]VCQPLR[Sar]; disulfide 6-15 (inferred); also: homodimer, C-termini joined to a lysine linker, PEGylated)

Reporter EC50 (pM) [2]: 150 pM
Proliferation EC50 [3]: 72 nM
B1: Peptide III (SEQ ID NO: 3) (peptide)
peptide: Ac-GGLYACHMGPIT[1Nal]VCQPLR[Sar]
modifications: disulfide 6-15 (inferred); also: C-termini joined to α- and ε-amines of a Lys linker carrying spacer and PEG
